Measured values reported in patent US20190030123A1.

What was measured:
[1] = molecular target: HIS-tagged neonatal Fc receptor (FcRn, No. CT009-H08H from Sino Biological Inc) (UniProt P55899); test: BLI (Octet RED 96), His-FcRn on Ni-NTA biosensor, aflibercept as analyte, pH 6.0; formulation (a), starting material T0
[2] = molecular target: HIS-tagged neonatal Fc receptor (FcRn, No. CT009-H08H from Sino Biological Inc) (UniProt P55899); test: BLI (Octet RED 96), His-FcRn on Ni-NTA biosensor, aflibercept as analyte, pH 6.0; formulation (b), starting material T0
[3] = molecular target: HIS-tagged neonatal Fc receptor (FcRn, No. CT009-H08H from Sino Biological Inc) (UniProt P55899); test: BLI (Octet RED 96), His-FcRn on Ni-NTA biosensor, aflibercept as analyte, pH 6.0; formulation (c), starting material T0
[4] = molecular target: HIS-tagged neonatal Fc receptor (FcRn, No. CT009-H08H from Sino Biological Inc) (UniProt P55899); test: BLI (Octet RED 96), His-FcRn on Ni-NTA biosensor, aflibercept as analyte, pH 6.0; sample (d) Eylea, starting material T0
[5] = molecular target: HIS-tagged neonatal Fc receptor (FcRn, No. CT009-H08H from Sino Biological Inc) (UniProt P55899); test: BLI (Octet RED 96), His-FcRn on Ni-NTA biosensor, aflibercept as analyte, pH 6.0; formulation (a), stored 3 months at 5 C
[6] = molecular target: HIS-tagged neonatal Fc receptor (FcRn, No. CT009-H08H from Sino Biological Inc) (UniProt P55899); test: BLI (Octet RED 96), His-FcRn on Ni-NTA biosensor, aflibercept as analyte, pH 6.0; formulation (b), stored 3 months at 5 C
[7] = molecular target: HIS-tagged neonatal Fc receptor (FcRn, No. CT009-H08H from Sino Biological Inc) (UniProt P55899); test: BLI (Octet RED 96), His-FcRn on Ni-NTA biosensor, aflibercept as analyte, pH 6.0; formulation (c), stored 3 months at 5 C
[8] = molecular target: HIS-tagged neonatal Fc receptor (FcRn, No. CT009-H08H from Sino Biological Inc) (UniProt P55899); test: BLI (Octet RED 96), His-FcRn on Ni-NTA biosensor, aflibercept as analyte, pH 6.0; sample (d) Eylea, stored 3 months at 5 C
[9] = molecular target: HIS-tagged neonatal Fc receptor (FcRn, No. CT009-H08H from Sino Biological Inc) (UniProt P55899); test: BLI (Octet RED 96), His-FcRn on Ni-NTA biosensor, aflibercept as analyte, pH 6.0; formulation (a), stored 3 months at 40 C/75% relative humidity
[10] = molecular target: HIS-tagged neonatal Fc receptor (FcRn, No. CT009-H08H from Sino Biological Inc) (UniProt P55899); test: BLI (Octet RED 96), His-FcRn on Ni-NTA biosensor, aflibercept as analyte, pH 6.0; formulation (b), stored 3 months at 40 C/75% relative humidity
[11] = molecular target: HIS-tagged neonatal Fc receptor (FcRn, No. CT009-H08H from Sino Biological Inc) (UniProt P55899); test: BLI (Octet RED 96), His-FcRn on Ni-NTA biosensor, aflibercept as analyte, pH 6.0; formulation (c), stored 3 months at 40 C/75% relative humidity
[12] = molecular target: HIS-tagged neonatal Fc receptor (FcRn, No. CT009-H08H from Sino Biological Inc) (UniProt P55899); test: BLI (Octet RED 96), His-FcRn on Ni-NTA biosensor, aflibercept as analyte, pH 6.0; sample (d) Eylea, stored 3 months at 40 C/75% relative humidity

HIS-tagged neonatal Fc receptor (FcRn, No. CT009-H08H from Sino Biological Inc), sequence (P55899 24-297 limits assumed, chain 1 of 2): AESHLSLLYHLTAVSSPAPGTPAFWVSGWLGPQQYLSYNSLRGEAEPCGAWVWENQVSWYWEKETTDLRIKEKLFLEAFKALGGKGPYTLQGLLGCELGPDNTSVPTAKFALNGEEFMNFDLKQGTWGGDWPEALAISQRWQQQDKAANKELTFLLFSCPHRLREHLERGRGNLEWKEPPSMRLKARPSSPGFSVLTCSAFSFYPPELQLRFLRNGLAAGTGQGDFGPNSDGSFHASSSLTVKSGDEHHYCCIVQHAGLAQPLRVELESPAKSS
HIS-tagged neonatal Fc receptor (FcRn, No. CT009-H08H from Sino Biological Inc), sequence (chain, as listed by the source H08H H08H limits assumed, chain 2 of 2): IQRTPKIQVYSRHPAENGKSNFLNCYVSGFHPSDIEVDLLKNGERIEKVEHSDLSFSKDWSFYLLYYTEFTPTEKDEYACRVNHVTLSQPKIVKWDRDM

## aflibercept (from UniProt P17948 129-230; P35968 225-327) (Fc fusion)
[1]
  Kd: 0.118 nM
  koff: 6.56e-05 s⁻¹
  kon: 556000 M⁻¹ s⁻¹
[2]
  koff: 6.47e-05 s⁻¹
  kon: 613000 M⁻¹ s⁻¹
[3]
  Kd: 0.107 nM
  koff: 6.44e-05 s⁻¹
  kon: 605000 M⁻¹ s⁻¹
[4]
  Kd: 0.0993 nM
  koff: 5.56e-05 s⁻¹
  kon: 560000 M⁻¹ s⁻¹
[5]
  Kd: 0.098 nM
  koff: 5.84e-05 s⁻¹
  kon: 596000 M⁻¹ s⁻¹
[6]
  Kd: 0.0923 nM
  koff: 5.71e-05 s⁻¹
  kon: 619000 M⁻¹ s⁻¹
[7]
  Kd: 0.103 nM
  koff: 6.28e-05 s⁻¹
  kon: 610000 M⁻¹ s⁻¹
[8]
  Kd: 0.0968 nM
  koff: 6.11e-05 s⁻¹
  kon: 631000 M⁻¹ s⁻¹
[9]
  Kd: 0.0905 nM
  koff: 4.11e-05 s⁻¹
  kon: 454000 M⁻¹ s⁻¹
[10]
  Kd: 0.0591 nM
  koff: 2.86e-05 s⁻¹
  kon: 483000 M⁻¹ s⁻¹
[11]
  Kd: 0.0591 nM
  koff: 2.71e-05 s⁻¹
  kon: 459000 M⁻¹ s⁻¹
[12]
  Kd: 0.0609 nM
  koff: 3e-05 s⁻¹
  kon: 493000 M⁻¹ s⁻¹
